B1: bassoon (BSN) peptide, modified version with the TQT motif near the C-terminus (peptide)
peptide: PRATAEFSTQTPSP
notes: also called BSN^II; modified BSN peptide

target: dynein light chain LC8 (UniProt P63167 1-89); experiment: ITC; peptide (500 μM) injected into 25 μM LC8 in the cell; 25°C; 50 mM sodium phosphate, 50 mM NaCl, 1 mM sodium azide, 5 mM β-mercaptoethanol, pH 7.5; single-site model; averages of two to three experiments; conditions: both partners purified
Sequence (P63167 whole entry): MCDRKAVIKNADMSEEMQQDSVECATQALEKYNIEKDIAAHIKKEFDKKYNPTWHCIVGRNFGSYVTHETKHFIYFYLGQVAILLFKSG

What does the source list for APMSCDKSTQTPSP [BCL2L11 peptide]?
Kd: 0.16 µM; stoichiometry N: 1 peptide per LC8 chain

Which Kd does the source give for GQGAALTTATQTTHLE [GP1BA peptide] here?
The Kd was over 25 µM.

SKTQQTFGSQTECT [TOGARAM1 peptide] was tested. Which Kd did it give?
The Kd was over 25 µM.

How did the Kd turn out when SPSPTGLPTQTPGF [ARAP3 peptide] was run?
The Kd was over 25 µM.

For DDSGGNATTQTTSD [ROR1 peptide], which Kd is on record?
The Kd was over 25 µM.

For B1, which “stoichiometry N” value is on record?
Its value is 1 peptide per LC8 chain.

For SSSTRSIDTQTPSV [GLCCI1 peptide], which “stoichiometry N” value is on record?
The value was 1 peptide per LC8 chain.

For HPETQDSSTQTDTS [SPAG5 peptide], which “stoichiometry N” value is on record?
Its value is 1 peptide per LC8 chain.

How did the “stoichiometry N” value turn out when NQSFTTASTQTPPQ [CAPRIN2 peptide] was run?
The value was 1 peptide per LC8 chain.

With AKESCNMETQTSST [OFD1 peptide] as the binder, how does the “stoichiometry N” value read?
The value was 1 peptide per LC8 chain.

PVLTSATGTQTSPA [MUC3A peptide] was tested. Which “stoichiometry N” value did it give?
Its value is 1 peptide per LC8 chain.

For DDHSREKGTQTSGD [SLC9A2 peptide], which “stoichiometry N” value is on record?
Its value is 1 peptide per LC8 chain.

EKELRHIGTQISSD [ICE1 peptide] was tested. Which “stoichiometry N” value did it give?
The value was 1 peptide per LC8 chain.

Which “stoichiometry N” value does the source give for ARAGRSVSTQTGSM [CIZ1 peptide] here?
Its value is 1 peptide per LC8 chain.

SQNHWTRSTQTTRE [MUC4 peptide (SQNHWTRSTQTTRE)] was tested. Which “stoichiometry N” value did it give?
The value was 1 peptide per LC8 chain.

Which “stoichiometry N” value does the source give for DDNHWTRSTQTTRE [MUC4 peptide with N-terminal aspartates (DDNHWTRSTQTTRE)] here?
The value was 1 peptide per LC8 chain.

PAPPSYSDKGVQTPSK [ZFPM1 peptide] was tested. Which “stoichiometry N” value did it give?
The value was 1 peptide per LC8 chain.

For YDSMDHLDKQTQTPKT [CCL2 peptide], which “stoichiometry N” value is on record?
The value was 1 peptide per LC8 chain.

YSRKSRCVSVQTDPT [SON peptide] was tested. Which “stoichiometry N” value did it give?
Its value is 1 peptide per LC8 chain.

For YGCTRHQSVQTEDG [MAST1 peptide], which “stoichiometry N” value is on record?
Its value is 1 peptide per LC8 chain.

Which “stoichiometry N” value does the source give for QDFMKHLDKKTQTPKL [CCL7 peptide] here?
The value was 1 peptide per LC8 chain.
